Data as given in patent US20100104530A1 (published 2010).

T1: GST fusion of VPAC1 extracellular loop 3 (human)
T1 construct: also called isolated extracellular loop 3 of the VPAC1 receptor; not shown: glutathione-S-transferase (GST)
T1 chain: PDNFKPEVKMLFE

T2: GST fusion of VPAC1 extracellular loop 2 (human)
T2 construct: also called isolated extracellular loop 2 of the VPAC1 receptor; not shown: glutathione-S-transferase (GST)
T2 chain: IHFEDYGCWDTINSSLWW

T3: GST fusion of VPAC1 variant 3-2 (amino acids 123-457 of SEQ ID NO:15) (human, UniProt P32241 123-457)
T3 construct: not shown: GST carrier and the pGEX vector linker
T3 sequence: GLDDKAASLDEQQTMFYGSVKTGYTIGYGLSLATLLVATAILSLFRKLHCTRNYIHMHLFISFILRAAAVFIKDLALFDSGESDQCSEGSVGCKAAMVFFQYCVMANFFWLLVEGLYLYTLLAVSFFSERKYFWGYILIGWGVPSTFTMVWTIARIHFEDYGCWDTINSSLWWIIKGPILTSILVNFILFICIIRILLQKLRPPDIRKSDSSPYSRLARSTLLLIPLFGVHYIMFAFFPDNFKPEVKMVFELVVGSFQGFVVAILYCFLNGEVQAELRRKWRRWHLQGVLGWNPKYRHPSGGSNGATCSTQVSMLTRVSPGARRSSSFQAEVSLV

T4: GST fusion of VPAC1 variant 4-2 (amino acids 231-457 of SEQ ID NO:15) (human, UniProt P32241 231-457)
T4 construct: not shown: GST carrier and the pGEX vector linker
T4 sequence: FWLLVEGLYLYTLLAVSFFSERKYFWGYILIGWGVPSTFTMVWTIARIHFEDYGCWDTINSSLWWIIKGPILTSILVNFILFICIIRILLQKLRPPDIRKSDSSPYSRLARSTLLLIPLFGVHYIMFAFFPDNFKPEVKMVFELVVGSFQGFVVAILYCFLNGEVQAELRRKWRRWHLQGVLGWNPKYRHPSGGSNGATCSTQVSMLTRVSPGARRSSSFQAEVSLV

T5: VPAC1 receptor of mouse bone marrow-derived CD41/61+ megakaryocytes (mouse, UniProt P97751 31-459)
T5 construct: whole, on cells; Detected by immunoblot of megakaryocytes and addressed on living megakaryocytes in the cAMP assays; also called VPAC1 receptor on the murine megakaryocytes
T5 sequence (looked up): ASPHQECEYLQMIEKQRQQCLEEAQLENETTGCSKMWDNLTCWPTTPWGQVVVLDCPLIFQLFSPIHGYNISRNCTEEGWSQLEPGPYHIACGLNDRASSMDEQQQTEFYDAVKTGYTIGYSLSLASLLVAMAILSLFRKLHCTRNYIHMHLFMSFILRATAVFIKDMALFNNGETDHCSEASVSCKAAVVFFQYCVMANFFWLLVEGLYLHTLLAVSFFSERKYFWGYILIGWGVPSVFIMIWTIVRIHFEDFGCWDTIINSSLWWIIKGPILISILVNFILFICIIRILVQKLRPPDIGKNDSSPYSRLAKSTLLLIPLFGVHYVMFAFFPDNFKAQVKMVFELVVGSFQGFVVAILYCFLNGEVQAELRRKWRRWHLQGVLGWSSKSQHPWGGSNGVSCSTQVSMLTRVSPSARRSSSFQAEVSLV


Legend:
[1] = biological target: T1, GST fusion of VPAC1 extracellular loop 3; experiment: western blot on GST fusion of extracellular loop 3
[2] = biological target: T6, GST-VPAC1 fusion protein (full length human VPAC1) (human, UniProt P08515 1-218 = GST); experiment: SPR (BIAcore 1000), GST-VPAC1 immobilised on CM5, antibody injected, 1:1 Langmuir fit; second batch; second of two batches of murine 23A11
T6 construct: also called recombinant VPAC1
Method: (§1) For kinetic binding analysis of GST-VPAC1 with the GST-VPAC1-antibodies, we used a BIAcore surface plasmon resonance system at 25° C. These interactions were performed on a BIAcore 1000. GST-VPAC1 was covalently immobilized on a CM5 sensorchip (carboxylated dextran matrix) after activation with a 1:1 mixture of 1-ethyl-3-(3-dimethylaminopropyl)carbodiimide and N-hydroxysuccinimide. The remaining active sites on the chip were blocked by 1.0 M ethanolamine-HCl at pH 8.5. To perform binding assays with the GST-VPAC1-antibodies, various concentrations (ranging from 250 nm to 5 nm) of murine 23A11 were injected over the immobilized GST-VPAC-1 at a flow rate of 30 μl/min. This was performed in a running buffer consisting of 0.01 M HEPES at pH 7.4, 0.15M NaCl, 3 mM EDTA and 0.005% Surfactant P20 (or Tween 20). The sensorgrams were evaluated using the BIAevaluation 4.1 software. The rate constants kₐ and kd and the dissociation constant KD were determined by using a global fit with a Langmuir 1:1 binding model with baseline drift.

[3] = biological target: T2, GST fusion of VPAC1 extracellular loop 2; experiment: western blot on GST fusion of extracellular loop 2
[4] = biological target: T3, GST fusion of VPAC1 variant 3-2 (amino …); experiment: western blot on GST-fused VPAC1 deletion variants
Method: (§2) For the epitope mapping of 23A11, several VPAC1 deletion variants were fused to GST and expressed. Binding of 23A11 to the VPAC1 deletion variants was tested by western blotting.
(§3) VPAC1 variant 4-2 (and, to a lesser extent, variant 3-2) was recognized by 23A11. Since this protein contains the second as well as the third extracellular loop of VPAC1, both loops (extracellular loop 2: SEQ ID NO:1; extracellular loop 3:SEQ ID NO:1) were made as GST fusion proteins and tested in western blotting. The murine antibody 23A11 was binding to each of these loops.

[5] = biological target: T4, GST fusion of VPAC1 variant 4-2 (amino …); experiment: western blot on GST-fused VPAC1 deletion variants
Method: as §2, §3

[6] = biological target: T6, GST-VPAC1 fusion protein (full length …); experiment: SPR (BIAcore 1000), GST-VPAC1 immobilised on CM5, antibody injected, 1:1 Langmuir fit; first batch; first of two batches of murine 23A11
Method: as §1

[7] = biological target: T5, VPAC1 receptor of mouse bone …; experiment: immunoblot of mouse bone marrow megakaryocytes
[8] = biological target: T6, GST-VPAC1 fusion protein (full length …); experiment: SPR (BIAcore 1000), GST-VPAC1 immobilised on CM5, 1:1 Langmuir fit; humanized 23A11, isotype not stated

| Binder | binding result [1] | Kd [2] | binding result [3] | binding result [4] | binding result [5] | Kd [6] | binding result [7] | Kd [8] |
| --- | --- | --- | --- | --- | --- | --- | --- | --- |
| murine anti-VPAC1 monoclonal antibody 23A11 (antibody, V domains shown, Mouse monoclonal antibody from a hybridoma; also called murine 23A11; anti-VPAC1 receptor antibody 23A11) VH: EVQLQESGPSLVKPSQTLSLTCSVTGDSITSGYWNWIRKFPGNKLEYMGYIRYSGSTYYSPALKSRFSITRDTSKNQYYLQLNSVTTEDTATYYCSNWAYWGQGTLVTVSA VL: DIVITQDELSNPVTSGESVSISCRSSKSLLYKDGKTYLNWFLQRPGQSPQLLIYLMSTRASGVSDRFSGSGSGTDFTLEISRVKAEDVGVYYCQQLVEYPLTFGAGTKLELK | binds | 19.9 nM | binds | binds | binds | 28.3 nM | binds | – |
| humanized anti-VPAC1 monoclonal antibody 23A11 (antibody, V domains shown, also called h23A11; rhu23A11) VH: EVQLQESGPGLVKPSQTLSLTCTVSGDSITSGYWNWIRKHPGKGLEYMGYIRYSGSTYYSPSLKSRFTISRDTSKNQYSLKLSSVTAADTATYYCSNWAYWGQGTLVTVSA VL: DIVITQSPLSLPVTPGEPVSISCRSSKSLLYKDGKTYLNWFLQRPGQSPQLLIYLMSTRASGVSDRFSGSGSGTDFTLKISRVEAEDVGVYYCQQLVEYPLTFGQGTKLEIK | – | – | – | – | – | – | – | 9.82 nM |
